Measured values reported in patent EP4790071A2.
“And” between values parts separate entries of the source, which are not always exact repeats. Identical values can stand only once.

How the values were obtained:
[1] = target: FcγRIIIa (from Sino Biological, also known as CD16a) (UniProt P08637); experiment: BLI (Fortebio), FcγRIIIa on SA sensor, antibody 31.3-500 nM, 30 C, 1:1 fit
[2] = target: CD73 endogenously expressed on the cell surface (MDA-MB-231 cells; U87-MG cells) (UniProt P21589); experiment: flow cytometry on MDA-MB-231 cells
[3] = target: human NT5E-Biotin (for NT5E, GenbankID: NP_002517.1, position: 1-552) (human) (UniProt P21589); experiment: ELISA, NT5E-Biotin on streptavidin plate; antibody 0.333 ug/mL diluted 1:243
[4] = target: CD73 endogenously expressed on the cell surface (MDA-MB-231 cells; U87-MG cells) (UniProt P21589); experiment: flow cytometry on MDA-MB-231 cells; antibody 0.14 nM
[5] = target: human NT5E-Biotin (for NT5E, GenbankID: NP_002517.1, position: 1-552) (human) (UniProt P21589); experiment: ELISA, NT5E-Biotin on streptavidin plate; antibody 0.333 ug/mL diluted 1:27
[6] = target: human NT5E-Biotin (for NT5E, GenbankID: NP_002517.1, position: 1-552) (human) (UniProt P21589); experiment: ELISA, NT5E-Biotin on streptavidin plate; antibody 0.333 ug/mL diluted 1:9
[7] = target: human NT5E(1-552)-his (human) (UniProt P21589); experiment: BLI (Fortebio), antibody on Protein A sensor, antigen 3.125-200 nM, 37 C, 1:1 fit
[8] = target: human NT5E-Biotin (for NT5E, GenbankID: NP_002517.1, position: 1-552) (human) (UniProt P21589); experiment: ELISA, NT5E-Biotin on streptavidin plate
[9] = target: human NT5E-Biotin (for NT5E, GenbankID: NP_002517.1, position: 1-552) (human) (UniProt P21589); experiment: ELISA, NT5E-Biotin on streptavidin plate; antibody 0.333 ug/mL diluted 1:3
[10] = target: human NT5E-Biotin (for NT5E, GenbankID: NP_002517.1, position: 1-552) (human) (UniProt P21589); experiment: ELISA, NT5E-Biotin on streptavidin plate; antibody 0.333 ug/mL diluted 1:729
[11] = target: human NT5E-Biotin (for NT5E, GenbankID: NP_002517.1, position: 1-552) (human) (UniProt P21589); experiment: ELISA, NT5E-Biotin on streptavidin plate; antibody 0.333 ug/mL diluted 1:81
[12] = target: CD73 endogenously expressed on the cell surface (MDA-MB-231 cells; U87-MG cells) (UniProt P21589); experiment: flow cytometry on MDA-MB-231 cells; antibody 0.41 nM
[13] = target: human NT5E-Biotin (for NT5E, GenbankID: NP_002517.1, position: 1-552) (human) (UniProt P21589); experiment: ELISA, NT5E-Biotin on streptavidin plate; antibody 0.333 ug/mL

Chain of FcγRIIIa (from Sino Biological, also known as CD16a) (P08637 17-208 limits assumed): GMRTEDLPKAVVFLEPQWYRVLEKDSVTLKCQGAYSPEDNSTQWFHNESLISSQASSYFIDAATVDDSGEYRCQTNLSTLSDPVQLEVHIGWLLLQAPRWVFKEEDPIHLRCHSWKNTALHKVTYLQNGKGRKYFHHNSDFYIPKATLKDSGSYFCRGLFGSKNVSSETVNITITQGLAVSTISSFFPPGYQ
Chain of human NT5E-Biotin (for NT5E, GenbankID: NP_002517.1, position: 1-552) (human) (P21589 27-552 limits assumed, form in doubt): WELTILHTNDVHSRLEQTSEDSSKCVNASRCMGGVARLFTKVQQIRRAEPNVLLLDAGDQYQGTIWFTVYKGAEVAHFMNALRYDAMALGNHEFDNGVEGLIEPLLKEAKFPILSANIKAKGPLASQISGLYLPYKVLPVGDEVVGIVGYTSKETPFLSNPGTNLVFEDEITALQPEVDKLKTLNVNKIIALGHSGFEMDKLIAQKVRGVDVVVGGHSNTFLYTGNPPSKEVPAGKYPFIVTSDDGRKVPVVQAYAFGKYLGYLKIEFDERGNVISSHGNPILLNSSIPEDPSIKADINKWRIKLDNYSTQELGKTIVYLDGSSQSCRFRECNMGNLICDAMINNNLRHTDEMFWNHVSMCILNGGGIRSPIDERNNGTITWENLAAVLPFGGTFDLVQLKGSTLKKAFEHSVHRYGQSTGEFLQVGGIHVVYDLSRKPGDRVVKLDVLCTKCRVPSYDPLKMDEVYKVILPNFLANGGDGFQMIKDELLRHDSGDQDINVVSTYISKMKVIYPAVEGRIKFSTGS
Chain of human NT5E(1-552)-his (human) (P21589 27-552 limits assumed, form in doubt): as above
Chain of CD73 endogenously expressed on the cell surface (MDA-MB-231 cells; U87-MG cells) (P21589 27-549 limits assumed): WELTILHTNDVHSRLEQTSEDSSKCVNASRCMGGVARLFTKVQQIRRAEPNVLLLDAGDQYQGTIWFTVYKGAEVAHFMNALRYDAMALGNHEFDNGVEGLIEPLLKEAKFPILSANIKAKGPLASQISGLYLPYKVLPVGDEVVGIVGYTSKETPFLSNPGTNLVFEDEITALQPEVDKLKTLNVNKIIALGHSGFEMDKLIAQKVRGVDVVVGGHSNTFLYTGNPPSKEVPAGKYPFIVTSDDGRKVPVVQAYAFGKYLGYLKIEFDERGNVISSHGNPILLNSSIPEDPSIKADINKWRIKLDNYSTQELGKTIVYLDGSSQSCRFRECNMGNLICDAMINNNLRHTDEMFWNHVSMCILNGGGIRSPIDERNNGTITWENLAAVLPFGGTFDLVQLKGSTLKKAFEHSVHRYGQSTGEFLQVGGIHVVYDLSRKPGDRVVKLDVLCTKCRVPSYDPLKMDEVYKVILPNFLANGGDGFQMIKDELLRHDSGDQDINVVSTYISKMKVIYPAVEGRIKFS

Row | Kd [1] [nM] | koff [1] [s⁻¹] | kon [1] [M⁻¹ s⁻¹] | EC50 [2] [nM] | OD (450 nm) [3] | FACS fluorescence signal (read-out not given) [4] | OD (450 nm) [5] | OD (450 nm) [6] | Kd [7] [nM] | S E (kon) [7] [M⁻¹ s⁻¹] | S E(kdis) [7] [s⁻¹] | koff [7] [s⁻¹] | kon [7] [M⁻¹ s⁻¹] | EC50 [8] [nM] | OD (450 nm) [9] | OD (450 nm) [10] | OD (450 nm) [11] | FACS fluorescence signal (read-out not given) [12] | OD (450 nm) [13] | Substance
1 | 125 | 0.022 | 176000 |  |  |  |  |  |  |  |  |  |  |  |  |  |  |  |  | Wild-type IgG1 antibody
2 | 141 | 0.0342 | 243000 | 1.43 | 0.536 and 0.528 | 43.2 | 1.77 and 1.74 | 2.27 and 2.28 | 0.104 | 3200 | 5.02e-06 | 2.44e-05 | 234000 | 0.048 | 2.57 and 2.6 | 0.272 and 0.275 | 1.06 and 1.03 | 91 | 2.55 and 2.53 | positive control antibody MEDI9447 (oleclumab)
